The test deals with human CD47 expressed on cells (red blood cells, K562 cells, THP-1 macrophages) (human) (UniProt Q08722). The test is described as follows: cell-based or functional assay.

The results in this text go back to patent US20240158448A1, “MULTIVALENT NANO-'SELF' PEPTIDES AND USES THEREOF” (THE TRUSTEES OF THE UNIVERSITY OF PENNSYLVANIA, priority 2021, published 2024).

B1: mouse anti-human CD47 antibody B6H12 (BD Biosciences) (antibody, from another filing, V domains shown)
VH: EVQLVESGGDLVKPGGSLKLSCAASGFTFSGYGMSWVRQTPDKRLEWVATITSGGTYTYYPDSVKGRFTISRDNAKNTLYLQIDSLKSEDTAIYFCARSLAGNAMDYWGQGTSVTVSS
VL: DIVMTQSPATLSVTPGDRVSLSCRASQTISDYLHWYQQKSHESPRLLIKFASQSISGIPSRFSGSGSGSDFTLSINSVEPEDVGVYYCQNGHGFPRTFGGGTKLEIK
Molecule B1 returned a % THP-1 macrophages phagocytosing opsonized RBCs of 30%.
